Laboratory results from patent US20090118184A1 (UNIVERSITY OF ROCHESTER, published 2009).
Numbering of substitutions follows the chain as printed.

Tests used:
Assay in all cases: cell-based or functional assay
[1] = target: T1, factor VIIIa A1/A3C1C2 dimer, S313A (human, UniProt P00451 20-391; P00451 1709-2351)
T1 chain 1: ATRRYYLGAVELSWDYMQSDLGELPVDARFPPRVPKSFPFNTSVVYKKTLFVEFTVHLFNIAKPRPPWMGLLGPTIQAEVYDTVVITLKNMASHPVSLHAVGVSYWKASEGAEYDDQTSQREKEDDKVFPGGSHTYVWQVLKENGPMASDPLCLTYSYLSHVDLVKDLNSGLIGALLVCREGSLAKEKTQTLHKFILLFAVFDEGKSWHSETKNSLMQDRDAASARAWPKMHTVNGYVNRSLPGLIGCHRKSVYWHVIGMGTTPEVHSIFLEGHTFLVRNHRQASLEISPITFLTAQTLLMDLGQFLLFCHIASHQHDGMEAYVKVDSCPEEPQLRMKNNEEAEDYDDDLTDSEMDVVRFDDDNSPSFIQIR
T1 chain 2: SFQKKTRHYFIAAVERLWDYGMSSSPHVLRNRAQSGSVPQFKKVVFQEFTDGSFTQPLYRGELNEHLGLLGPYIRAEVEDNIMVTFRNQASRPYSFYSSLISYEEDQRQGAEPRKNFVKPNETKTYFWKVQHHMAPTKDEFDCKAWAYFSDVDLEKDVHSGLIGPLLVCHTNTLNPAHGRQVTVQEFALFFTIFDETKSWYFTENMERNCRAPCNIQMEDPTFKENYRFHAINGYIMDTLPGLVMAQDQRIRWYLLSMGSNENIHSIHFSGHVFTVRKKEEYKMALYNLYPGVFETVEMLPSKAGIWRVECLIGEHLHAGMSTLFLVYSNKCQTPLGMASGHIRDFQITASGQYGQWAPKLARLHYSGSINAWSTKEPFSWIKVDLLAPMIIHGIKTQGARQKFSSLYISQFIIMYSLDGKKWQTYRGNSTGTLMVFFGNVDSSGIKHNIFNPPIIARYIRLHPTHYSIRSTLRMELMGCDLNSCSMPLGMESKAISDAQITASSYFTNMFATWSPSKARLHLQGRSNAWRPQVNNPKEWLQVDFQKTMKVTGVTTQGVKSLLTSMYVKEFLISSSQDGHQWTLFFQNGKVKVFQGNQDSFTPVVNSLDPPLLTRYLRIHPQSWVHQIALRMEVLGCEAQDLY

[2] = target: T2, factor VIIIa A1/A3C1C2 dimer, Q1820A (human, UniProt P00451 20-391; P00451 1709-2351)
T2 sequence 1: T1 chain 1 with A313S
T2 sequence 2: T1 chain 2 with Q131A

[3] = target: T3, factor VIIIa A1/A3C1C2 dimer, R282A (human, UniProt P00451 20-391; P00451 1709-2351)
T3 chain 1: T1 chain 1 with R282A, A313S
T3 chain 2: T1 chain 2

[4] = target: T4, factor VIIIa A1/A3C1C2 dimer, E287A (human, UniProt P00451 20-391; P00451 1709-2351)
T4 chain 1: T1 chain 1 with E287A, A313S
T4 chain 2: T1 chain 2

B1: factor VIIIa A2 subunit, wild type (other)
chain: SVAKKHPKTWVHYIAAEEEDWDYAPLVLAPDDRSYKSQYLNNGPQRIGRKYKKVRFMAYTDETFKTREAIQHESGILGPLLYGEVGDTLLIIFKNQASRPYNIYPHGITDVRPLYSRRLPKGVKHLKDFPILPGEIFKYKWTVTVEDGPTKSDPRCLTRYYSSFVNMERDLASGLIGPLLICYKESVDQRGNQIMSDKRNVILFSVFDENRSWYLTENIQRFLPNPAGVQLEDPEFQASNIMHSINGYVFDSLQLSVCLHEVAYWYILSIGAQTDFLSVFFSGYTFKHKMVYEDTLTLFPFSGETVFMSMENPGLWILGCHNSDFRNRGMTALLKVSSCDKNTGDYYEDSYEDISAYLLSKNNAIEPR
[1]
  Factor VIIIa decay rate relative to wild type, FIXa (+): 1.86 relative to wild type
  Factor VIIIa decay rate, FIXa (+): 0.021 min⁻¹
[2]
  Factor VIIIa decay rate relative to wild type, FIXa (+): 1.01 relative to wild type
  Factor VIIIa decay rate, FIXa (+): 0.0114 min⁻¹
[3]
  Factor VIIIa decay rate relative to wild type, FIXa (+): 41.7 relative to wild type
  Factor VIIIa decay rate relative to wild type, FIXa (-): 10.7 relative to wild type
  Factor VIIIa decay rate, FIXa (+): 0.471 min⁻¹
  Factor VIIIa decay rate, FIXa (-): 0.674 min⁻¹
[4]
  Factor VIIIa decay rate relative to wild type, FIXa (+): 0.78 relative to wild type
  Factor VIIIa decay rate, FIXa (+): 0.0088 min⁻¹
